Literature values in publication PMC7763558.

Experiments:
Assay in all cases: SPR
[1] = molecular target: BPTI (partially folded client) (Bos taurus) (UniProt P00974)
[2] = molecular target: BPTI (unfolded client) (Bos taurus) (UniProt P00974)
[3] = molecular target: BPTI (native client) (Bos taurus) (UniProt P00974)

For PDI (from UniProt P07237), the Kd [1] is given as 14 µM, the Kd [2] is given as 3 µM and the Kd [3] is given as 394 µM.
